In patent US11369662B2 (The Medical College of Wisconsin, Inc., priority 2014, dated 2022):

Tests used:
[1] = biological target: T1, CXCR4 (Homo sapiens, UniProt P61073); experiment: Confocal microscopy of CXCR4 Ser324/Ser325 phosphorylation in HeLa cells; assay type: cell-based; conditions: HeLa cells with HA-CXCR4-YFP, 80 ng/ml, 15 min
T1 construct: purchased Millipore
Experimental: Connfocal microscopy. HeLa cells transiently transfected with HA-CXCR4-YFP were passaged onto poly-L-lysine coated coverslips and grown for 24 h. The next day, cells were washed once with warm DMEM containing 20 mM HEPES, pH 7.5, and incubated in the same medium for 3-4 h at 37° C. […] Cells were then fixed with PBS containing 3.7% paraformaldehyde, followed by permeabilization with 0.05% (w/v) saponin for 10 min, similar to a protocol we have described previously. Cells were then incubated with 1% goat serum in 0.05% saponin-PBS for 30 min at 37° C., followed by staining with […] monoclonal antibody that recognizes dually phosphorylated CXCR4 on serine residues 324 and 325 (clone 5E11) (1:50 dilution) for 1 h at 37° C. […] Samples were analyzed using an LSM 510 laser scanning confocal microscope (Carl Zeiss, Thornwood, N.Y.) equipped with a Plan-Apo 63×/1.4 oil lens objective. […] Acquired images were analyzed using ImageJ, version 1.41o software (National Institutes of Health, Bethesda, Md.) and Adobe Photoshop (CS4).
Confocal microscopy. […] Samples were analyzed using an LSM 510 laser scanning confocal microscope (Carl Zeiss, Thornwood, N.Y.) equipped with a Plan-Apo 63×/1.4 oil lens objective. […] Acquired images were analyzed using ImageJ, version 1.410 software (National Institutes of Health, Bethesda, Md.) and Adobe Photoshop (CS4).

[2] = biological target: T1, CXCR4; experiment: CXCR4 degradation assay in HeLa cells; assay type: cell-based; conditions: 80 ng/ml, 3 h, compared to vehicle
Experimental: (§1) CXCR4 degradation assay. HeLa cells grown on 6-cm dishes were washed once and incubated with DMEM containing 10% FBS and 50 μg/ml cyclohexamide for 15 min at 37° C. […] Cells were washed once and collected in 300 μl 2× sample buffer. Receptor levels were determined by SDS-PAGE followed by immunoblotting using an anti-CXCR4 antibody. Blots were stripped and reprobed for actin to assess loading. Receptor levels normalized to actin levels were determined by densitometric analysis.
as §1, with “2×sample” for “2× sample”

[3] = biological target: T1, CXCR4; experiment: CXCR4 ubiquitination assay in HEK293 cells stably expressing HA-CXCR4; assay type: cell-based; conditions: HEK293 HA-CXCR4 with FLAG-ubiquitin, 80 ng/ml, 30 min
Experimental: (§2) CXCR4 ubiquitination assays. HEK293 cells stably expressing HA-CXCR4 grown on 10-cm dishes were transfected with 3 μg FLAG-ubiquitin. The next day, cells were passaged onto 6-cm dishes and allowed to grow for an additional 24 h. […] Cells were then washed once on ice with cold PBS, and collected in 1 ml lysis buffer [50 mM Tris-Cl, pH 7.4, 150 mM NaCl, 5 mM EDTA, 0.5% (w/v) sodium deoxycholate, 1% (v/v) NP-40, 0.1% (w/v) SDS, 20 mM N-ethyCXCL121aleimide (NEM), and 10 μg/ml each of leupeptin, aprotinin, and pepstatin A]. Samples were transferred into microcentrifuge tubes and placed at 4° C. for 30 min, followed by sonification and centrifugation to pellet cellular debris. Clarified cell lysates were incubated with an anti-HA polyclonal and isotype control antibodies and the immunoprecipitates were analyzed by SDS-PAGE followed by immunoblotting using an anti-FLAG antibody conjugated to HRP.
as §2, with “Tris-CI,” for “Tris-Cl,”

[4] = tested on: KG1a cells; experiment: Apoptosis assays in KG1a cells expressing CXCR4-YFP; assay type: cell-based, human; conditions: for cleavage of PARP: 100 ng/ml
Experimental: Apoptosis assays. KG1a (human acute myelogenous leukemia) cells were assayed for CXCL12-dependent apoptosis as previously described. Briefly, CXCR4 expression on KG1a cells was achieved via transient transfection with a plasmid encoding a CXCR4-YFP fluorescent fusion protein. […] Apoptosis was assayed by staining cells with APC-conjugated annexin V to detect cell-surface phosphatidyl serine (BD Biosciences) or Alexaflour-647-conjugated antibody to detect cleaved PARP (BD Biosciences), and the percentage of YFP+ cells undergoing apoptosis was determined by flow cytometry.

T1 sequence (P61073 whole entry): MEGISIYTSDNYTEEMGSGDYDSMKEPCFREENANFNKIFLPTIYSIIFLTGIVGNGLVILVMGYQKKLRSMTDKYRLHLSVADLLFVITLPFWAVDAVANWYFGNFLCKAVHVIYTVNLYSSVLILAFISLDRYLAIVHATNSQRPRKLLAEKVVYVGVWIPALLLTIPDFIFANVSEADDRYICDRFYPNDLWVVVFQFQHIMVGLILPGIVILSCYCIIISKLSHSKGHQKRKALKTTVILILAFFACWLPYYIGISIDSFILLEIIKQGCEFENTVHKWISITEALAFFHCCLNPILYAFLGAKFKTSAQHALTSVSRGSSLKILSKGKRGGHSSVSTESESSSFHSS

| Substance | staining for CXCR4 phosphorylated on Ser324 and Ser325 [1] | CXCR4 degradation [2] | CXCR4 ubiquitination [3] | CXCR4 ubiquitination ([3]; listed as CXCL12) | cleavage of PARP [4] | EC50 ([4]; 16-18 h, read-out: EC50 of increase in annexin V) [nM] | increase in annexin V ([4]; 16-18 h) |
| --- | --- | --- | --- | --- | --- | --- | --- |
| CXCL12WT: wild type CXCL12 (stromal cell-derived factor-1/SDF-1), SEQ ID NO:1 | strong staining | approximately 60% | prompted ubiquitin | promoted ubiquitination of CXCR4 | significantly greater than CXCL122 | 1.75 ± 0.6 | – |
| CXCL122: constitutively dimeric variant of CXCL12 containing L36C/A65C mutations | weak staining similar to vehicle | ~15% | failed to promote CXCR4 ubiquitination | – | enhanced the cleavage of PARP | – | small but significant increase |
